Source: doi:10.1101/2020.01.15.908418
Where two headings read alike, the source gives them in different places.

How the values were obtained:
[1] = molecular target: tropomyosin of murine cardiac thin filaments (mouse (endogenous in murine ventricular myocardium)) (UniProt P58771); assay: cryo-EM structure
[2] = molecular target: tropomyosin of murine cardiac thin filaments (mouse (endogenous in murine ventricular myocardium)) (UniProt P58771); assay: cryo-EM structure; remark: listed apart in the source

- stoichiometry N [1]: 2
- stoichiometry N [2]: 2
Substance: tropomyosin of murine cardiac thin filaments (from UniProt P58771 1-284) (natural protein)
